These results are taken from publication PMC4519333, “Preclinical Evaluation of a Potential GSH Ester Based PET/SPECT Imaging Probe DT(GSHMe)2 to Detect Gamma Glutamyl Transferase Over Expressing Tumors” (PLoS ONE, 2015).

The nature of data set [1]: Log P calculation (octanol/PBS partition). It is filed as physicochemical. Particulars: pH 7.4. On the procedure: The value of partition coefficient of radiolabeled […] calculated and expressed as log P. The radiolabeled […] passed through 0.22 μ filter and approximately 10.2 ± 1.5 MBq of labeled compound was diluted in PBS, pH 7.4. To this equal volume of 1-octanol was added. The mixture was thoroughly vortexed for 10 min and then centrifuged at 5000 rpm for 5 min. […] The measurement was repeated thrice. The partition coefficient (P) was calculated using the following equation wherein, P = (counts in octanol fraction) / (counts in PBS fraction). For each value of P, log P value is calculated.

Data set [2] addresses T1, GGT on the surface of EAT cells (Mus musculus, UniProt Q60928).
T1 construct: endogenous in cells; host or cells: Ehrlich Ascites tumor (EAT) cells, strain F-3, passaged in BALB/c mice
Kind of data set: Cell binding studies on EAT cells (Scatchard). Further details: species or system mice. Particulars: 2 h, 37°C, Scatchard plot. As to the method: (§1) The specificity of ^99[…])2 to bind externally on tumor cells were examined by receptor binding assays on EAT cells isolated from the ascitic fluid of BALB/c Mice. Cells were diluted to 2 x 10^6 cells per mL and were aliquoted in different micro centrifuge tubes. Cells were washed twice with HBSS and finally resuspended in 1 mL of HBSS. Cells were then treated with various concentration of ^99[…]) for 2 h at 37°C. […] Specific binding was obtained by subtracting nonspecific binding from total binding. At the end of each incubation time, the cells were washed with cold PBS twice and pelleted down. Finally, cells were lysed and cell-associated radioactivity was determined by gamma counting. The total protein content of cells was estimated by Bicinchoninic acid (BCA) method. Similarly the binding experiments were performed on monolayer of BMG-1 cells (2 x 10^6) and were treated with ^99[…]) for 2 h at 37°C. […] Cells were lysed and cell associated radioactivity was determined. The total protein content was determined by BCA method. Scatchard Plot were plotted to determine Kd and Bmax.

The target in data set [3] is T2, GGT on the surface of BMG-1 cells (Homo sapiens, UniProt P19440).
T2 construct: endogenous in cells; host or cells: BMG-1 cerebral glioma cells (monolayer)
Kind of data set: Cell binding studies on BMG-1 cells (Scatchard). Particulars: 2 h, 37°C, Scatchard plot. On the procedure: as §1

A further data set concerns EAT cells. Kind of data set: Time course and kinetics of uptake. It is filed as cell-based, mice. On the procedure:
EAT cells were isolated from ascitic fluid of BALB/c mice and were diluted to 3 x 10^6 cells/mL. Cells were aliquoted in different micro centrifuge tubes and were treated with 200 μM of ^99mTc-DT(GSHMe)2 for different time intervals (0, 10, 30 sec, 1, 2, 5, 10, 30 min, 1 and 2 h). After the treatment, cells were centrifuged at 2000 rpm for 5 min and supernatant was carefully removed. Followed by three washes of cold saline and acidic wash buffer, cells were centrifuged to yield the pellet. The pellet was dissolved in 500 μL of lysis buffer. The amount of radioactivity (CPM) in cell lysate was determined by gamma counter. Later, after the activity decayed, total protein from the cells was estimated by BCA method of protein estimation. Absorbance values were determined at 595 nm on a multi plate reader. A standard plot was constructed taking various dilutions of BSA. Drug uptake was calculated and plotted.

The next data set in a line: in vivo. Further details: species or system mice. Particulars: BALB/c, mouse, iv, 0.25 mg/kg body weight, total radioactivity. As to the method: Radiolabeled ^99mTc-DT(GSHMe)2 (0.25 mg/Kg body weight) in a volume of 150 μL (11.1 ± 1.2 MBq) was carefully injected through the tail vein of each BALB/c mice xenografted with EAT Tumors in the hind limb. At 30 min, 1, 2 and 4 h post injection mice were sacrificed and different organs and tissues were dissected out. All the organs and tissues were rinsed in saline, weighed and counted in a gamma counter. Uptake of the radiotracer in each tissue was calculated and expressed as a percentage injected dose per gram of the tissue (% ID/g) and corrected for ^99mTc decay.

On the set-up of data set [4]: species or system mice. To be noted: mouse, in vivo, iv. As to the method: Blood clearance was performed to observe the rate of clearance of drug post administration. Radiolabeled conjugate 0.25 mg/Kg body weight of ^99mTc-DT(GSHMe)2 (22.2 ± 2.8 MBq) was administered intravenously through the tail vein of the mice. Blood samples were withdrawn at different time intervals (5, 15, 30 min, 1, 2 and 24 h). Decay corrected radioactivity is expressed as % ID, assuming a weight based theoretical blood volume as 7% of the body weight.

In data set [5] the test system is BALB/c mice bearing EAT tumor and turpentine oil inflammation. Kind of data set: SPECT imaging, tumor versus inflammation. It is filed as in vivo. To be noted: 2 h post i.v., EAT tumor hind limb, inflammation fore limb. As to the method: Athymic male mice were xenografted with BMG-1 human tumor cell line (0.1 mL of cell suspension containing ~5 ×10^6 BMG cells) in the flank region of the hind limb. BALB/c mice were inoculated with EAT murine tumor cells (5–6 × 10^6) in the flank region of the right hind limb. An inflammation lesion was induced in the fore limb by intramuscular injection of turpentine oil (100 μL) 48 h before imaging. For Scintigraphy, (n = 6) mice used for imaging, biodistribution studies (n = 32 mice) for two experiments 4 mice/group for 4 time points and blood kinetics (n = 18).
Xenografted experimental models were intravenously administered 0.1mg/Kg body weight ^68Ga-DT(GSHMe)2 (37 ± 2.2 MBq) and 0.25 mg/Kg Body weight ^99mTc-DT(GSHMe)2 (29.6 ± 1.8 MBq) via tail vein for PET and SPECT respectively. Blocking dose of ~ 5 mg/Kg body weight of GSH was administered intravenously in the experimental animal. The acquisition was performed 2 h post injection. The ratios were calculated from counts per pixel of individual ROI (Region of interest) for semi-quantitative analysis to understand the distribution and localization.

T2 sequence (P19440 1-380 limits assumed): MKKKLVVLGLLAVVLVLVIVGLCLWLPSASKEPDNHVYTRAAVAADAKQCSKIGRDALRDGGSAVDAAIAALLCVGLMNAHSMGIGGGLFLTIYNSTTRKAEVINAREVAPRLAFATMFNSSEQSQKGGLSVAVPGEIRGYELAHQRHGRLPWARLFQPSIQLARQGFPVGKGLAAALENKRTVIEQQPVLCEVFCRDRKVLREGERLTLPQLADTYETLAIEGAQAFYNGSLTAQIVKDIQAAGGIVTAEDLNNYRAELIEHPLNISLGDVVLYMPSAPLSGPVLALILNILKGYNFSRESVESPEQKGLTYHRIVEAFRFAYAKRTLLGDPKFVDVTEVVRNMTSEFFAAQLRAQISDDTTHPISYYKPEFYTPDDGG
T2 sequence (P19440 381-569 limits assumed): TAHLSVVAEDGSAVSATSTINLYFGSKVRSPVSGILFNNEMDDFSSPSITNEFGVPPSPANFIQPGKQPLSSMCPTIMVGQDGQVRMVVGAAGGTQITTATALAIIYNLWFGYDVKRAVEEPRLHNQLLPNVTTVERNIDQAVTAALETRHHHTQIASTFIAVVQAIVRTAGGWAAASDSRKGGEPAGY
T1 sequence (Q60928 1-379 limits assumed): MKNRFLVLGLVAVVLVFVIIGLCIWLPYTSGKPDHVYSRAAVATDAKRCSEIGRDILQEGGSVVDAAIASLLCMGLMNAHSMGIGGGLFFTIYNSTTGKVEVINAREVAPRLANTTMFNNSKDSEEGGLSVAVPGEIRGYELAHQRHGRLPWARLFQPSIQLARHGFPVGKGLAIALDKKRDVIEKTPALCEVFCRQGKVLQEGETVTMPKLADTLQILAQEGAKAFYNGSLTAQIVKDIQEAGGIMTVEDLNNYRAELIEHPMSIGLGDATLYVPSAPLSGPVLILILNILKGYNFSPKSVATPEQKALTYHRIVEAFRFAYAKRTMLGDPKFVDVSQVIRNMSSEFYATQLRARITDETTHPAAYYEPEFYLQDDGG
T1 sequence (Q60928 380-568 limits assumed): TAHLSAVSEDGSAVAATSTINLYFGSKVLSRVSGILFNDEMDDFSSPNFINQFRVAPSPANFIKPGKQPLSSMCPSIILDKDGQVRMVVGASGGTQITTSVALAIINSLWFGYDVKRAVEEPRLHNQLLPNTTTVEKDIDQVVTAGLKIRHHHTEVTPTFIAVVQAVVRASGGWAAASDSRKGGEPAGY

As for `CCOC(=O)CNC(=O)[C@H](CS)NC(=O)CC[C@H](NC(=O)CN(CCN(CCN(CC(=O)O)CC(=O)N[C@@H](CCC(=O)N[C@@H](CS)C(=O)NCC(=O)OCC)C(=O)O)CC(=O)O)CC(=O)O)C(=O)O` [99mTc-DT(GSHMe)2, metal not drawn], the pH-dependent lipophilicity (logD) in data set [1] is -1.31 ± 0.104. The compound also came in with a Bmax in data set [2] of 91.02 nM. Also, the Bmax in data set [3] is recorded as 17.2 nM. For the same compound, the “maximal transport rate velocity (Vmax)” value with EAT cells is 0.478 µM/min. Also, the Michaelis-Menten constant (Km) with EAT cells (Eadie-Hofstee, read-out: Michaelis constant (Km) of transport) stood at 2.25 µM. Also, in “in vivo”, the tissue to tissue ratio at 2 h was found to be 24. Also, in data set [4], the “biological half-life t1/2 (Slow)” value is 15.44 and the t1/2 slow is given as 15.44 h. Besides, the “biological half-life t1/2 (Fast)” value in data set [4] (0.25 mg/kg) is 8.8 min. Also, the “tracer localisation tumor versus inflammation” value in data set [5] is given as “substantial amount of radiotracer concentration at tumor site”.
